# From patent publication US20170226193A1 (UNIVERSITY OF MASSACHUSETTS, published 2017)
# T1: a.a. 142-273
# T1 construct: not shown: N-terminal His tag and vector-derived linker of pET45-His
# T1 chain: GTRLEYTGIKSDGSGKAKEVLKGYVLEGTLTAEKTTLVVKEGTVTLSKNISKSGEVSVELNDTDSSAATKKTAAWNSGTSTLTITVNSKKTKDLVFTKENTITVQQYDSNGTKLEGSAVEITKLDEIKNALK
# T2: a.a. 178-273
# T2 construct: not shown: N-terminal His tag and vector-derived linker of pET45-His
# T2 chain: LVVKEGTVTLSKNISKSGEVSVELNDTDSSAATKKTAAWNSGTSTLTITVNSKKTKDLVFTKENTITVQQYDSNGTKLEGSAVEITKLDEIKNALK
# T3: recombinant OspA of Borrelia afzelii ACA-1 (OspA-afzelii) (Borrelia afzelii ACA-1, UniProt P0A3N7 17-273)
# T3 construct: also called OspA B. afzelii; not shown: N-terminal GST tag (pGEX-4T-3) or His tag (pET45-His)
# T3 sequence: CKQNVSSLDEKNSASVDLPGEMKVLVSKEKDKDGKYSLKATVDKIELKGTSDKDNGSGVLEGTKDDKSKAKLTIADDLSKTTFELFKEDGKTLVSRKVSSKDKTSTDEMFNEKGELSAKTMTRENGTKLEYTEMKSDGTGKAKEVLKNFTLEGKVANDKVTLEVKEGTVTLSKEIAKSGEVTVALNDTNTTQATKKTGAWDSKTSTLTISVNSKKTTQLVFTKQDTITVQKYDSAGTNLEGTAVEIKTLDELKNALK
# T4: a.a.18-141
# T4 construct: not shown: N-terminal His tag and vector-derived linker of pET45-His
# T4 chain: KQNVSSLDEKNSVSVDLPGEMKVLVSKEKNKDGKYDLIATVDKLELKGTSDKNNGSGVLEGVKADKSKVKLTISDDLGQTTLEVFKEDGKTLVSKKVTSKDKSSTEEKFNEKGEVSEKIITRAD
# T5: a.a. 18-177
# T5 construct: not shown: N-terminal His tag and vector-derived linker of pET45-His
# T5 chain: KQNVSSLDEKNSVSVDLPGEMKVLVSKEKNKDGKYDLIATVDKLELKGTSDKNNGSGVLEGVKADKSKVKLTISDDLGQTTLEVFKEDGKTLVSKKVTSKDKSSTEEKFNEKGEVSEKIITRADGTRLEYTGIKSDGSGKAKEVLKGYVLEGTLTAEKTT
# T6: a.a. 106-273
# T6 construct: not shown: N-terminal His tag and vector-derived linker of pET45-His
# T6 chain: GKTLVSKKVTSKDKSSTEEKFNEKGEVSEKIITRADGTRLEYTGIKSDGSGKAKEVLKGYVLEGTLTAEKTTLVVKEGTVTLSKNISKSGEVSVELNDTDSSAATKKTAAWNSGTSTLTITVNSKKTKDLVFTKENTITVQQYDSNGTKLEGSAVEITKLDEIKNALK
# T7: a.a. 71-273
# T7 construct: not shown: N-terminal His tag and vector-derived linker of pET45-His
# T7 chain: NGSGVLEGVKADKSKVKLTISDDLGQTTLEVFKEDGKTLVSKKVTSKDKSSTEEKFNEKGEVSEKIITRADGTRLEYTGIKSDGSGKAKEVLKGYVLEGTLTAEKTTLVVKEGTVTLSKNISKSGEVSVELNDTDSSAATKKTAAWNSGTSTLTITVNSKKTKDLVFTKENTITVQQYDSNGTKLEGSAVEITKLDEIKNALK
# T8: native OspA on Borrelia afzelii BO23 spirochetes (Borrelia afzelii BO23, UniProt P0A3N7 17-273)
# T8 sequence: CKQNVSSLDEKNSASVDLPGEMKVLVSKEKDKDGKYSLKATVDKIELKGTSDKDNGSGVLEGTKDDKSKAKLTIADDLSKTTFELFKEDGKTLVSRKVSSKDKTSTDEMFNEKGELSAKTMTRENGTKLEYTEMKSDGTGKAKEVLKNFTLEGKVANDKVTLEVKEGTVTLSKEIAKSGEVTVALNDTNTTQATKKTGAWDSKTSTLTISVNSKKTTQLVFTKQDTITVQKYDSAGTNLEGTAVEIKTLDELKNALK
# Tests used:
# a.a. 142-273 = biological target: T1, a.a. 142-273; experiment: ELISA on plate-coated OspA protein form [panel B]
# a.a. 178-273 = biological target: T2, a.a. 178-273; experiment: ELISA on plate-coated OspA protein form [panel B]
# [1] = biological target: T9, recombinant OspA of Borrelia garinii PBi (OspA-garinii) (Borrelia garinii PBi, UniProt Q09089 17-273); experiment: SPR, Biacore 3000; antibody amine-coupled on CM5 chip, OspA in solution
# T9 construct: also called OspA B. garinii; not shown: N-terminal GST tag (pGEX-4T-3) or His tag (pET45-His)
# [2] = biological target: T9, recombinant OspA of Borrelia garinii …; experiment: SPR, Biacore 3000
# [3] = biological target: T10, recombinant OspA of Borrelia burgdorferi B31 (OspA-burgdorferi) (Borrelia burgdorferi B31, UniProt P0CL66 17-273); experiment: SPR, Biacore 3000
# T10 construct: also called OspA B. burgdorferi; not shown: N-terminal GST tag (pGEX-4T-3) or His tag (pET45-His)
# [4] = biological target: T3, recombinant OspA of Borrelia afzelii …; experiment: SPR, Biacore 3000
# [5] = biological target: T11, OspA (a.a. 18-273) mutant with D249A and S250A point mutations, N-terminal His tag (Borrelia burgdorferi, UniProt P0CL66 18-273); experiment: ELISA on plate-coated OspA protein form [panel B]
# T11 construct: not shown: N-terminal His tag of the pET45 vector
# a.a.18-141 = biological target: T4, a.a.18-141; experiment: ELISA on plate-coated OspA protein form [panel B]
# a.a. 18-177 = biological target: T5, a.a. 18-177; experiment: ELISA on plate-coated OspA protein form [panel B]
# a.a. 106-273 = biological target: T6, a.a. 106-273; experiment: ELISA on plate-coated OspA protein form [panel B]
# a.a. 71-273 = biological target: T7, a.a. 71-273; experiment: ELISA on plate-coated OspA protein form [panel B]
# [6] = biological target: native OspA on Borrelia burgdorferi B31 spirochetes (Borrelia burgdorferi B31, UniProt P0CL66 17-273); experiment: cell-based or functional assay
# [7] = biological target: native OspA on Borrelia garinii PBi spirochetes (Borrelia garinii PBi, UniProt Q09089 17-273); experiment: cell-based or functional assay
# [8] = biological target: T8, native OspA on Borrelia afzelii BO23 …; experiment: cell-based or functional assay
# [9] = biological target: T10, recombinant OspA of Borrelia …; experiment: SPR, Biacore 3000; antibody amine-coupled on CM5 chip, OspA in solution
# Protocol: (§1) Biacore 3000 was used to determine the affinity of HuMabs to OspA-burgdorferi, OspA-garinii and OspA-afzelii. HuMabs was captured on the surface of a Biacore chip (GE healthcare) via amine coupling (Sensor Chip CM5). The captured Mabs were exposed to various concentrations of OspA in solution. The Kₒₙ and Koff for an affinity (KD) were calculated by BIAevaluation software.
# [10] = biological target: T3, recombinant OspA of Borrelia afzelii …; experiment: as above
# Protocol: as §1
# T9 sequence (Q09089 17-273 limits assumed): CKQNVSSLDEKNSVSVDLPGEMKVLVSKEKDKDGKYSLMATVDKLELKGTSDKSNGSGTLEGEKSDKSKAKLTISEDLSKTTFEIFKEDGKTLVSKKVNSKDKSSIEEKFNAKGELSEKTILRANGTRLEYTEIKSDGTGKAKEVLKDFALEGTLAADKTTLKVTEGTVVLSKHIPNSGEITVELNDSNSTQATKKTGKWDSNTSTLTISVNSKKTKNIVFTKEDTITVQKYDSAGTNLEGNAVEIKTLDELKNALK
# native OspA on Borrelia garinii PBi spirochetes, sequence (Q09089 17-273 limits assumed): as above
Binder,binding result (a.a. 142-273),binding result (a.a. 178-273),Kd [1] [nM],Kd [2] [nM],Kd [3] [nM],Kd [4] [nM],binding result [5],binding result (a.a.18-141),binding result (a.a. 18-177),binding result (a.a. 106-273),binding result (a.a. 71-273),Borreliacidal activity (EC50 (nM)) [6] [nM],Borreliacidal activity (EC50 (nM)) [7] [nM],Borreliacidal activity (EC50 (nM)) [8] [nM],Kd [9] [nM],Kd [10] [nM]
"anti-OspA antibody 212-55 (antibody, V domains shown, also called HuMab 212-55) VH: EVQLVESGGGLVQPGGSLRLSCAASGFTFRNYWMDWVRQAPGKGLEWVANIKQDGSVKYYVDSVEGRFTISRDNAKNSLFLQMNSLRAEDTAVYYCARDGYSGYDSVGFDIWGQGTMVTVSS VL: EIVLTQSPGTLSLSPGERATLSCRASQSVSSSYLAWYQQKPGQAPRLLISDTSSRATGIPDRFSGSGSGTDFTLTISRLEPEDFAVYYCQQYGSSPYTFGQGTKLEIK",binds,no binding,480,–,–,–,–,–,–,–,–,–,–,–,–,–
"anti-OspA antibody 857-2 (antibody, V domains shown, also called HuMab 857-2) VH: EVQLVQSGEEVKKPGESLKISCKGSGYKFSSYWIGWVRQMPGKGLEWMGIIFPGDSDKRYSPSFQGQVTISADKSISTVYLQWSSLKASDTAMYYCARHITTHTYRGFFDFWGQGTLVTVSS VL: AIQLTQSPSSLSASVGDRVTITCRASQDISSALAWYQQKPGKAPKLLIYDVSSLESGVPSRFSGSGSGTDFTLTISSLQPEDFATYYCQQFNGYPHRLTFGGGTKVEIK",no binding,no binding,1,≤ 36,≤ 22,≤ 36,binds,binds,binds,binds,binds,2,41.6,2,0.65,1.6
"anti-OspA antibody 319-44 (antibody, V domains shown, also called HuMab 319-44; 319-44 wild-type antibody) VH: EMQLVQSGAEVKKPGESLKISCKGSGYIFATYWIGWVRQMPGKGLEWMGIIYPNDSDTRYSPSFQGQVTISADKSINTAYLQWSSLKASDTAMYYCARTRWYFDLWGRGTLVTVSS VL: not shown",binds,binds,674,–,–,–,no binding,no binding,no binding,binds,binds,< 0.4,–,4,328,1200
"anti-OspA antibody 221-7 (antibody, V domains shown, also called HuMab 221-7) VH: EVQLVQSGSEVKKPGESLKISCQVSGYSFTSYWIGWVRQMPGKGLERVGFIYPGDSDTRYSPSFQGQVTISADKSISTAYLQWSSLKASDTAMYYCARGILRYFDWFLDYWGQGTLVTVSS VL: AIQLTQSPSSLSASVGDRVTITCRASQGISSGSAWYQQKPGKAPKLLIYDVSSLESGVPSRFSGSGSGTEFTLTISSLQPEDFATYYCQQFNSYLLTFGGGTKVEIK",no binding,no binding,1.3,≤ 36,≤ 22,≤ 36,binds,binds,binds,no binding,binds,< 0.4,6.6,0.9,0.66,7.8
